The chains are these.
B1: CCL-314A (antibody, V domains shown)
VH: QVQLQESGPGLVKPSETLSLTCTVSGGSISSYYWSWIRQPAGKGLEWIGRIYASGGTNYNPSLKSRVTMSVDTSKNQFSLKVSSVIAADTAIYYCARNRLGIYDYWGQGSLVTVSS
VL: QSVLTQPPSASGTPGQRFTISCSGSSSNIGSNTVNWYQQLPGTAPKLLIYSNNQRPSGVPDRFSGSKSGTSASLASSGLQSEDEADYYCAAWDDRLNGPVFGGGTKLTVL
notes: AlivaMab chimeric IgG, human lambda LC
B2: CCL-324A (antibody, V domains shown)
VH: QVQLQESGPGLVKPSETLSLTCTVSGGSISSYYWSWIRQPPGKGLEWIGYVYYSGSTNYNPSLKSRVTTSVDTSKNQFSLKLRSVTAADTAVYYCARDRLGIAFDIWGQGTMVTVSS
VL: SSELTQDPAVSVALGQTVRITCQGDSLRSYYASWYQQKPGQAPILVIYGKNNRPSGIPDRFSGSSSGNTASLTITGAQAEDEADYYCNSQDNSGNHLVVFGRGTKLTVL
notes: as for B1
B3: CCL-201A (antibody, V domains shown)
VH: B2 VH with S35I, V51F, T69I, D72G, R83S, D98S, I102S, A103I, I106Y, M112L
VL: not shown
notes: as for B1
B4: CCL-208A (antibody, V domains shown)
VH: QVQLVQSGAEVKKPGASVKVSCKASGYTFTDYYMHWVRQAPGQGLEWMGWINPNSGGANYAQKFQGRVTMTRDTSISIAYMELSRLRSDDTAIYYCARGRLTFFDYWGQGTLVTVSS
VL: not shown
notes: as for B1
B5: CCL-226A (antibody, V domains shown)
VH: QVQLQESGPGLVKPSETLSLTCTVSGASISSYYWSWIRQPPGKGLEWIGYFYYSGSTNYSPSLKSRVTFSVDTSKNQFSLKLSSVTAADTAVYFCARGKVGVPFDYWGQGTLVTVSS
VL: not shown
notes: as for B1
B6: CCK-434A (antibody, V domains shown)
VH: EVQLVESGGGLVQPGGSLRLSCAASGFTFSSYDMHWVRQATGKGLEWVSAIGTAGDTYYPGSVKGRFTISRENAKNSLYLQMNSLRAGDTAVYYCARGHIVVVTAMDYWGQGTLVTVSS
VL: not shown
notes: AlivaMab chimeric IgG, human kappa LC
B7: CCL-333A (antibody, V domains shown)
VH: EVQLVESGGGLVKPGGSLRLSCAASGFTFSYYSMNWVRQAPGKGLEWVSSISDSSDYIYYADSVKGRFTISRDNAKNSLYLQMNSLRAEDTAVYYCARGGLRFDYWGQGTLVTVSS
VL: not shown
notes: as for B1
B8: CCL-209A (antibody, V domains shown)
VH: QVQLQESGPGLVKPSETLSLTCTVSGGSISSFYWSWIRQSPGRGLEWIGYIFYSGSTKYNPSLMSRVTISADTSKNQFSLKLSSVTAADTAVYYCARGRLGNYFDYWGQGTLVTVSS
VL: not shown
notes: as for B1
B9: CCL-203A (antibody, V domains shown)
VH: QVQLQESGPGLVKPSETLSLTCTVSGGSISSYYWNWIRQPPGKGLEWIGYIYYSGSTNYNPSLKSRVTISLDTSKNQFSLKLSSVTAADTAVYHCARGRLNGAFDYWGQGTLVTVSS
VL: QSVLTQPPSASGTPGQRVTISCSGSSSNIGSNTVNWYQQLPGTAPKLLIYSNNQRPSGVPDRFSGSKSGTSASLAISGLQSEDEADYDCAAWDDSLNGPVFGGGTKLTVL
notes: as for B1
B10: CCL-349A (antibody, V domains shown)
VH: B9 VH with S31I, S54I, L71V, H94Y, N101T, G102Y, Y106I, L112M
VL: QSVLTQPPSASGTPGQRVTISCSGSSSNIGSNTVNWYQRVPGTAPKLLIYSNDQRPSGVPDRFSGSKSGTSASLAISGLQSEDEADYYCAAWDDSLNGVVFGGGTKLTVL
notes: as for B1
B11: CCL-303A (antibody, V domains shown)
VH: B2 VH with V51I, T69I, R83S, Y93F, D98I, R99T, L100V, G101T, I102S
VL: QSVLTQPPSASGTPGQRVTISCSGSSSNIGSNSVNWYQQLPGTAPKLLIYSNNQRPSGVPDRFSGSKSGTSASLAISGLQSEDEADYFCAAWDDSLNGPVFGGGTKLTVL
notes: as for B1
B12: CCL-253A (antibody, V domains shown)
VH: B2 VH with P41A, Y50R, V51I, Y53T, T69M, R83S, V85M, I102R
VL: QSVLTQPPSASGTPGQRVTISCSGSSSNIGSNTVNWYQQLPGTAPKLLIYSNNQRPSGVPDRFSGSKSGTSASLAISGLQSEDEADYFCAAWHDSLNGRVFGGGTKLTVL
notes: as for B1
B13: CCL-344A (antibody, V domains shown)
VH: QVQLQESGPGLVKPSETLSLTCTVSGGSISSYYWSWIRQPAGKGLEWIGRIYTSGSTNYNPSLKSRVTMSVDTSKNQFSLKLSSVTAADTAVYYCARERLGMFFDYWGQGTLVTVSS
VL: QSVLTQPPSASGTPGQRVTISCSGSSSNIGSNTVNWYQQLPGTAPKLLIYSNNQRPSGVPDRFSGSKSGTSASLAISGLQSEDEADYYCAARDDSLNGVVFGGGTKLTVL
notes: as for B1
B14: CCL-320A (antibody, V domains shown)
VH: B13 VH with G26V, T53A, S83T, L100V, M102I, F103Y
VL: not shown
notes: as for B1
B15: CCL-322A (antibody, V domains shown)
VH: B13 VH with T57I, N58K, T68A, R99G, L100I, G101L, M102G, F103Y
VL: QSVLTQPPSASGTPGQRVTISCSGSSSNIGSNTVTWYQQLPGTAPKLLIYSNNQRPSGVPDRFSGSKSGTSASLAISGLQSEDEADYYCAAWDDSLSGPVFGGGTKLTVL
notes: as for B1
B16: CCL-301A (antibody, V domains shown)
VH: B13 VH with S56Y, T68S, M102A
VL: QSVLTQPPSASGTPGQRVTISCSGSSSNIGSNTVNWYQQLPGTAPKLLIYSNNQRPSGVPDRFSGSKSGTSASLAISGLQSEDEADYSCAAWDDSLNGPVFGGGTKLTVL
notes: as for B1
B17: CCL-341A (antibody, V domains shown)
VH: B13 VH
VL: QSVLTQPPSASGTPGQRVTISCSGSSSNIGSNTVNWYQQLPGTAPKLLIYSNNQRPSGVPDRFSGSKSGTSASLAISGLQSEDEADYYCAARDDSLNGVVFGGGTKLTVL
notes: as for B1
B18: CCL-235A (antibody, V domains shown)
VH: B13 VH with R38W, S74P, G101T, M102G, F103A, Y106I, L112M
VL: not shown
notes: as for B1
B19: CCL-339A (antibody, V domains shown)
VH: B13 VH with Y32N, N58K, R99G, L100I, G101V, M102G, F103A, D105H, T111A
VL: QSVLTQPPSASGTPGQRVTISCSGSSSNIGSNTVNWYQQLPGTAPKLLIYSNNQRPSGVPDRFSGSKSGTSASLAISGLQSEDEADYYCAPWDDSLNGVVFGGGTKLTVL
notes: as for B1
B20: CCL-223A (antibody, V domains shown)
VH: QVQLQESGPGLVKPSETLSLTCTVSGGSISSYYWSWIRQPAGKGLEWIGRIYTSGSTNYNPSLKSRVSMSVDTSKNQFSLKLSSVTAADTAVYYCARERIIWFDPWGQGTLVTVSS
VL: not shown
notes: as for B1
B21: CCL-220A (antibody, V domains shown)
VH: B20 VH with W47G, S68T, I100L, I101Y, W102G, F103M, P105V, L111T
VL: not shown
notes: as for B1
B22: CCK-408A (antibody, V domains shown)
VH: B20 VH with N60H, L63F, S68T, N76T, V85L, E98G, R99G, I101T
VL: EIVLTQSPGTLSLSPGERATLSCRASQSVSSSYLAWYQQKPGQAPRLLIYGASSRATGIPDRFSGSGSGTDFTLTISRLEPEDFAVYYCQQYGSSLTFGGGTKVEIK
notes: as for B6
B23: CCL-207A (antibody, V domains shown)
VH: B20 VH with S56T, S68T, S83N, I100V
VL: not shown
notes: as for B1
B24: CCK-410A (antibody, V domains shown)
VH: EVQLVESGGGLVQPGRSLRLSCTASGFTFGDYAMSWFRQAPGKGLEWVGFIRSKAYGGTTEYAASVKGRFTISRDDTKSIAYLQMNSLKIEDTAVHYCTREGSFGALDIWGQGIMVTVSS
VL: not shown
notes: as for B6
B25: CCL-311A (antibody, V domains shown)
VH: EVQLVQSGAEVKKPGESLKISCKGSGYSFTNYWIGWVRQMPGKGLEWMGIIYPGDSDTRYSPSFQGQVTISADISITTAYLQWSSLKASDTAMYYCARHRLGFFDYWGQGTLVTVSS
VL: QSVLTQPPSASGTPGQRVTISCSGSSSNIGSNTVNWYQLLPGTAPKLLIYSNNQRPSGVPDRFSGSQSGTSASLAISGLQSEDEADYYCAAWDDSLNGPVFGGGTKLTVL
notes: as for B1
B26: CCK-501A (antibody, V domains shown)
VH: EVQLVESGGGLVKPGGSLRLSCAASGFTFSNAWMNWVRQAPGKGLEWVGRINSKTDGGTTDYAAPVKGRFTISRDDSKTTLYLQMNSLKTEDTAVYYCTTDGVYPDVFDIWGQGTMVTVSS
VL: not shown
notes: as for B6
B27: CCL-315A (antibody, V domains shown)
VH: B9 VH with N35S, P40S, L71V, H94F, G98A, R99L, N101T, A103G, D105A
VL: not shown
notes: as for B1
B28: CCL-338A (antibody, V domains shown)
VH: B9 VH with N35S, S56T, L71V, H94Y, G98A, R99L, L100I, N101V, D105A
VL: SYELTQPHSVSVATAQMARITCGGNNIGSKAVHWYQQKPGQDPVLVIYSDSNRPSGIPERFSGSNPGNTATLTISRIEAGDEADYYCQVWDSSSDHRVFGGGTKLTVL
notes: as for B1
B29: CCL-310A (antibody, V domains shown)
VH: EVQLVESGGGLVQPGGSLRLSCAASGFTFSNYWMRWVRQAPGKGLEWVANIKQDGSEKYYVDSVKGRFTISRDNAKYSLYLQMNSLRAEDTAVYYCARDRLGIFDYWGQGTLVTVSS
VL: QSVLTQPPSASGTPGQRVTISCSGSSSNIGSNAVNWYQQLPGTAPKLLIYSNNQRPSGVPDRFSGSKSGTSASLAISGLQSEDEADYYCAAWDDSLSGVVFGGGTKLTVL
B30: CCL-206A (antibody, V domains shown)
VH: B9 VH with N35T, S56I, I69M, L71M, K81R, H94Y, L100I, N101I, Y106I, L112M
VL: not shown
notes: as for B1
B31: CCL-249A (antibody, V domains shown)
VH: B13 VH with I48V, I51L, Y52F, T86I, G101T, M102G, F103Y
VL: not shown
notes: as for B1
B32: CCL-327A (antibody, V domains shown)
VH: B13 VH with T23S, Y33H, S54G, G101T, M102G, F103Y
VL: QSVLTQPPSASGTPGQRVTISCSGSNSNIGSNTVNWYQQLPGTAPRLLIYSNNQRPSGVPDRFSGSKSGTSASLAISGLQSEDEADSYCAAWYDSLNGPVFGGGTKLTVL
notes: as for B1
B33: CCL-331A (antibody, V domains shown)
VH: B20 VH with S68T, R99G, I100L, I101R, W102G
VL: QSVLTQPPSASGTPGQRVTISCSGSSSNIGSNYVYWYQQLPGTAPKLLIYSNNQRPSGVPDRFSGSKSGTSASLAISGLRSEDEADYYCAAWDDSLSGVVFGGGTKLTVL
notes: as for B1
B34: CCL-329A (antibody, V domains shown)
VH: B13 VH with L4P, S31G, K43T, P61S, L100M, G101A, M102T, F103I
VL: not shown
notes: as for B1

We go through 34 molecules from patent US20180258175A1 (ABLEXIS, published 2018).

Positions count from the first letter of the chain named.

For orientation: Kd means a measure of binding affinity in units of concentration. Read a high Kd as a looser complex. One may read the koff as the first-order rate constant of dissociation. The low end stands for a long-lived complex, the high end for a short-lived complex. What is called kon is the rate constant with which the complex forms. Read a low kon as slow association.

One assay deals with T1, human CD115 extracellular domain (Sino Biological 10161-H08H) (human, UniProt P07333 20-517).
T1 construct: extracellular domain; bought recombinant protein; also called huCD115; hu-CD115
Nature of the assay: ELISA, supernatant on huCD115. A general note: ELISA stands for enzyme-linked immunosorbent assay.
As for B1, the binding result is reported as “binds”.
Still for that read-out and setting: to B2 belongs “binds”.
On the same count and under the same terms, the entry for B3 is “binds”; for B4 it is “binds”.
The same measure, in the same setting: the entry for B5 is “binds”; for B6 it is “binds”; for B7 it is “binds”.
With B8, the binding result is “binds”.
B9: the binding result is “binds”.
The same measure, in the same setting: to B10 belongs “binds”.
With B11, the binding result is listed as “binds”.
Turning to B12, the binding result was “binds”.
The same measure, in the same setting: to B13 belongs “binds”.
On the same count and under the same terms, to B14 belongs “binds”; to B15, “binds”; to B16, “binds”.
Same read-out and setting: to B17 belongs “binds”; to B18, “binds”.
For the molecule B19, the binding result is given as “binds”.
For the molecule B20, the binding result is reported as “binds”.
Take B21: the binding result is recorded as “binds”.
The same measure, in the same setting: the entry for B22 is “binds”; for B23 it is “binds”; for B24 it is “binds”.
Same read-out and setting: to B25 belongs “binds”; to B26, “binds”; to B27, “binds”.
Still for that read-out and setting: the entry for B28 is “binds”.

The next assay has as its target T1, human CD115 extracellular domain (Sino …). The assay is described as follows: SPR ProteOn, supernatant mAb captured on anti-mouse IgG, Hu CD115 analyte.
The molecule B29 had a Kd of 0.079 nM, an off-rate constant (koff) of 4.35e-06 s⁻¹ and a kon of 50600 M⁻¹ s⁻¹.
The matching figures for B30: 0.495 nM, 2.92e-05 s⁻¹ and 59000 M⁻¹ s⁻¹.
For the molecule B31, binding was put at a Kd of 0.599 nM, the koff turned out to be 8.91e-05 s⁻¹ and the kon worked out at 149000 M⁻¹ s⁻¹.
Taken in the same sequence, the figures for B32 were 1.41 nM, 0.000189 s⁻¹ and 133000 M⁻¹ s⁻¹.
Consider B33, for which the Kd came to 0.118 nM, the dissociation rate constant (koff) came to 2.2e-05 s⁻¹ and the on-rate constant (kon) is 186000 M⁻¹ s⁻¹.
Taken in the same sequence, the figures for B34 were 0.038 nM, 4.46e-06 s⁻¹ and 118000 M⁻¹ s⁻¹.
